Consider 31 molecules from paper PMC3517355.

T1: CCHF Altamura Gn 611 peptide (Crimean-Congo hemorrhagic fever virus, UniProt Q8JSZ3)
T1 chain: TQEGRGHVKLSRGSE

B1: E7b-1aR (ssDNA)
DNA: ATCCGTCACACCTGCTCTGGAAGCTTCATATTTTGAGGAATCCTCTTGAATTATGGTGTTGGCTCCCGTAT
B2: E7b-6R (ssDNA)
DNA: ATCCGTCACACCTGCTCTTAACCTATTTGGGTCGCGTTCTCAAAATAACTTCTGTGGTGTTGGCTCCCGTAT
B3: E7b-5R (ssDNA)
DNA: ATCCGTCACACCTGCTCTTGGGCATCAGCGGGCGATGCATGCGATAAATTAGTGTGGTGTTGGCTCCCGTAT
B4: E7b-20/21R (ssDNA)
DNA: ATCCGTCACACCTGCTCTCGCTGAAGCAAGACATTATCGGGACATTGCCGTGATGGTGTTGGCTCCCGTAT
B5: E7b-1bF (ssDNA)
DNA: ATACGGGAGCCAACACCAGTCCGTTATGACATGTCCGGACCCGTACGCGTGTCAAAGAGCAGGTGTGACGGAT
B6: E7b-3R (ssDNA)
DNA: ATCCGTCACACCTGCTCTAAAGGATCCTTCTTAGCATCACATTATGATAAGATATGGTGTTGGCTCCCGTAT
B7: E7b-8a/10/16-19/23-25R (ssDNA)
DNA: ATCCGTCACACCTGCTCTTGACACGCGTACGGGTCCGGACATGTCATAACGGACTGGTGTTGGCTCCCGTAT
B8: E7b-14R (ssDNA)
DNA: ATCCGTCACACCTGCTCTTGACGCGCGAACGGGTCCGGACACGTCATAACGGAATGGTGCTGGCTCCCGTAA
B9: E7b-1aF (ssDNA)
DNA: ATACGGGAGCCAACACCATAATTCAAGAGGATTCCTCAAAATATGAAGCTTCCAGAGCAGGTGTGACGGAT
B10: E7b-1bR (ssDNA)
DNA: ATCCGTCACACCTGCTCTTTGACACGCGTACGGGTCCGGACATGTCATAACGGACTGGTGTTGGCTCCCGTAT
B11: Gn6-16cR (ssDNA)
DNA: ATCCGTCACACCTGCTCTGTCGGGATGCGCCGGGCCGCCATGATTAGTGTGCTCTGGTGTTGGCTCCCGTAT
B12: Gn6-7bR (ssDNA)
DNA: ATCCGTCACACCTGCTCTCACATACTGGTCAGTCTCTATCGAGGCGGGCATTGGTGTTGGCTCCCGTAT
B13: Gn6-16cF (ssDNA)
DNA: ATACGGGAGCCAACACCAGAGCACACTAATCATGGCGGCCCGGCGCATCCCGACAGAGCAGGTGTGACGGAT
B14: Gn6-25R (ssDNA)
DNA: ATCCGTCACACCTGCTCTACAGTTAGAGCTTGCCGTATGCCTTTGTTAACATAATGGTGTTGGCTCCCGTAT
B15: Gn6-30F (ssDNA)
DNA: ATACGGGAGCCAACACCATCCCACCGAATATCCGCTTTCCTCGTCCTCCTTTCAGAGCAGGTGTGACGGAT
B16: Gn6-6R (ssDNA)
DNA: ATCCGTCACACCTGCTCTGCATATAAATTTTTAACAAGGGACTGGTAACTATCCTGGTGTTGGCTCCCGTAT
B17: Gn6-5F (ssDNA)
DNA: ATACGGGAGCCAACACCACGCCTTGTCTATTCTCTTAGTTTCCTGCTACTCCACAGAGCAGGTGTGACGGAT
B18: Gn6-15R (ssDNA)
DNA: ATCCGTCACACCTGCTCTGGGCCAGGTAAGAAGATGCGAGCTGTGTAATACATGTGGTGTTGGCTCCCGTAT
B19: Gn6-17F (ssDNA)
DNA: ATACGGGAGCCAACACCAAACTAGACAACCGCCCTTATACACACTGTACCAGTAGAGCAGGTGTGACGGAT
B20: Gn6-18F (ssDNA)
DNA: ATACGGGAGCCAACACCATACGCACCCGCATTCGTTAGTGTGTACAGTATGTCCAGAGCAGGTGTGACGGAT
B21: E7c-23/25R (ssDNA)
DNA: ATCCGTCACACCTGCTCTACAGTTAGAGCTTGCCGTATGCCTTTGTTAACATAATGGTGTTGGCTCCCGTAT
B22: E7a-23F (ssDNA)
DNA: ATACGGGAGCCAACACCATGTCAGGACCTCCATCGCCCGGGCCCGCCGCCGCTGAGAGCAGGTGTGAC
B23: E7a-20R (ssDNA)
DNA: ATCCGTCACACCTGCTCTGGTTAAACGATATGGGGCCTGCCGTTATAACTGCGTGGTGTTGGCTCCCGTAT
B24: E7a-5R (ssDNA)
DNA: ATCCGTCACACCTGCTCTTGACACGCGTACGGGGTCCGGACATGTCATAACGGACTGGTGTTGGCTCCCGTAT
B25: E7a-33R (ssDNA)
DNA: ATCCGTCACACCTGCTCTACATCACATCTGACTGAGTCCATGGCGCTCTGTGTGTGGTGTTGGCTCCCGTAT
B26: E7a-8R (ssDNA)
DNA: ATCCGTCACACCTGCTCTCGCTGAAGCAAGACATTATCGGGACATTGCCGTGATGGTGTTGGCTCCCGTAT
B27: E7a-20F (ssDNA)
DNA: ATACGGGAGCCAACACCACGCAGTTATAACGGCAGGCCCCATATCGTTTAACCAGAGCAGGTGTGACGGAT
B28: E7a-18F (ssDNA)
DNA: ATACGGGAGCCAACACCAACAGATGGATAAGGGGGAAACTGCCCATTCGGTTAGTAGAGCAGGTGTGACGGAT
B29: E7a-33F (ssDNA)
DNA: ATACGGGAGCCAACACCACACACAGAGCGCCATGGACTCAGTCAGATGTGATGTAGAGCAGGTGTGACGGAT
B30: E7a-29F (ssDNA)
DNA: ATACGGCAGCCAACACCACACACATAGCGCTTTGTATTCAGCCGGATGTGATGTAGAGCAGGTGTGACGGAT
B31: E7a-11R (ssDNA)
DNA: ATCCGTCACACCTGCTCTCGTGTGATATATATGGTAAGGGGGGTTAGTACTGCTGGTGTTGGCTCCCGTAT

The first series concerns the target CCHF 11E7b peptide (Crimean-Congo hemorrhagic fever virus, UniProt Q8JSZ3). The series is described as follows: ELASA; […] (0.5 M NaCl, 10 mM Tris-HCl, 1 mM MgCl2, pH 7.5-7.6), 1 h, RT (~25 C); […]. The note with it: label: 5'-biotin.
Molecule B1 gave a binding signal of 2 A405.
B2 returned a binding signal of 1.86 A405.
On the same count and under the same terms, then B3, with 1.86 A405; and B4, with 1.78 A405; and B5, with 1.88 A405.
B6 yielded a binding signal of 1.94 A405.
The same measure, in the same setting: then B7, with 2 A405; and B8, with 1.9 A405; and B9, with 1.83 A405.
Still for that read-out and setting: as for B10, the figure is 2.07 A405.

The target of a further series is T1, CCHF Altamura Gn 611 peptide. The description is as above. The following applies: label: 5'-biotin.
For B11, the binding signal stood at 1.67 A405.
On the same count and under the same terms, then B12, with 1.69 A405; and B13, with 1.9 A405; and B14, with 1.94 A405.
In the case of B15, the binding signal stood at 1.75 A405.
The same measure, in the same setting: as for B16, the figure is 1.64 A405; as for B17, 1.75 A405.
On the same count and under the same terms, then B18, with 1.63 A405; and B19, with 1.82 A405.
The same measure, in the same setting: as for B20, the figure is 1.86 A405.

In the next series the target is CCHF 11E7c peptide (Crimean-Congo hemorrhagic fever virus, UniProt Q8JSZ3). The series is described as above. The note with it: label: 5'-biotin.
In turn, B21 gave a binding signal of 2.12 A405.

A further series concerns the target CCHF 11E7a peptide (Crimean-Congo hemorrhagic fever virus, UniProt Q8JSZ3). Described as above. The following applies: label: 5'-biotin.
In turn, B22 displayed a binding signal of 2.23 A405.
The same measure, in the same setting: then B23, with 2.04 A405.
Still for that read-out and setting: as for B24, the figure is 2.08 A405.
Same read-out and setting: as for B25, the figure is 2.12 A405; as for B26, 2.04 A405.
In turn, B27 came in with a binding signal of 2.02 A405.
Same read-out and setting: as for B28, the figure is 2.08 A405; as for B29, 2.07 A405; as for B30, 2.06 A405.
The same measure, in the same setting: as for B31, the figure is 2.07 A405.
